Assay results as given in patent US20190147972A1, “BIOMOLECULE DESIGN MODEL AND USES THEREOF” (University of Notre Dame du Lac, priority 2016, published 2019).
One block for each substance: values may come before it.

How the values were obtained:
[1] = target: MART126(27L)-35 pG6-Sarc/HLA-A2 (UniProt Q16655); assay: SPR steady state, TCR immobilised, pMHC injected
[2] = target: MART126(27L)-35 pE1F/HLA-A2 (UniProt Q16655); assay: SPR steady state (Biacore 3000), TCR immobilised, pMHC injected; relative to the unsubstituted ELA peptide
[3] = target: MART126(27L)-35 pE1Q/HLA-A2 (UniProt Q16655); assay: as above
[4] = target: MART126(27L)-35 pE1A/HLA-A2 (UniProt Q16655); assay: as above
[5] = target: MART126(27L)-35 pT9A/HLA-A2 (UniProt Q16655); assay: as above
[6] = target: MART126(27L)-35 pI5E/HLA-A2 (UniProt Q16655); assay: as above
[7] = target: MART126(27L)-35 pE1D/HLA-A2 (UniProt Q16655); assay: as above
[8] = target: MART126(27L)-35 pG6-Sarc/HLA-A2 (UniProt Q16655); assay: as above
MART126(27L)-35/HLA-A2 = MART126(27L)-35/HLA-A2 (UniProt Q16655); assay: SPR steady state (Biacore 3000), TCR immobilised, pMHC injected; relative to wild type
DMF5 TCR = assay: SPR binding of MART126(27L)-35 peptide variants/HLA-A2 to DMF5 TCR; settings: ELA peptide substitution vs native peptide, SPR steady state, 25° C.
Experimental: Briefly, the TCR a and b chains, the HLA-A2 heavy chain, and b2-microglobulin (b2m) were generated in Escherichia coli as inclusion bodies, which were isolated and denatured in 8 M urea. TCR a and b chains were diluted in TCR refolding buffer (50 mM Tris (pH 8), 2 mM EDTA, 2.5 M urea, 9.6 mM cysteamine, 5.5 mM cystamine, 0.2 mM PMSF) at a 1:1 ratio. HLA-A2 and b2m were diluted in MHC refolding buffer (100 mM Tris (pH 8), 2 mM EDTA, 400 mM L-arginine, 6.3 mM cysteamine, 3.7 mM cystamine, 0.2 mM PMSF) at a 1:1 ratio in the presence of excess peptide. TCR and pMHC complexes were incubated for 24 h at 4° C. Afterward, complexes were desalted by dialysis at 4° C. and room temperature respectively, then purified by anion exchange followed by size-exclusion chromatography. Refolded protein absorptions at 280 nm were measured spectroscopically and concentrations determined with appropriate extinction coefficients. Mutations in TCR a and b chains were generated by whole-plasmid mutagenesis and confirmed by sequencing. Peptides were synthesized and purified commercially.
Surface plasmon resonance: Surface plasmon resonance experiments were performed with a Biacore 3000 instrument using CMS sensor chips as previously described^15. In all studies, TCR was immobilized to the sensor chip via standard amine coupling and pMHC complex was injected as analyte. Studies were performed at 25° C. in 20 mM HEPES (pH 7.4), 150 mM NaCl, 0.005% Nonidet P-20. All studies were steady-state experiments measuring RU vs. concentration of injected analyte, and were performed with TCRs coupled onto the sensor chip at 400-2000 response units. Injected pMHC spanned a concentration range of 0.1-150 μM at flow rates of 5 μl/min. Data were processed with BioEvaluation 4.1 and fit using a 1:1 binding model utilizing MATLAB 2015b.
Next, eight MART126(27L)-35 peptide variants with a broad range of complex scores were selected for experimental testing with DMF5. A peptide was also examined with a non-standard sarcosine (N-methyl glycine) substituted for Gly6 of the peptide to help test the implications of treating structured water explicitly in the DMF5 interface as discussed above and shown in FIG. 5.

fold affinity enhancement over the unsubstituted peptide [1]: 3 fold
ΔΔG° [2]: 2.26 kcal/mol
ΔΔG° [3]: 1 kcal/mol
ΔΔG° [4]: 0.06 kcal/mol
ΔΔG° [5]: 1.6 kcal/mol
ΔΔG° [6]: 3.07 kcal/mol
ΔΔG° [7]: 1.3 kcal/mol
ΔΔG° [8]: -0.58 kcal/mol
Substance: DMF5 TCR (wild type, soluble)

ΔΔG° (DMF5 TCR): 1.3 kcal/mol
Substance: pE1D: MART126(27L)-35 (ELA) peptide with E1D substitution, presented by HLA-A2 (DLAGIGILTV; MART-1 26-35 peptide; UniProt Q16655 26-35, looked up, variant A27L E26D)

ΔΔG° (DMF5 TCR): 2.26 kcal/mol
Substance: pE1F: MART126(27L)-35 (ELA) peptide with E1F substitution, presented by HLA-A2 (FLAGIGILTV; MART-1 26-35 peptide; UniProt Q16655 26-35, looked up, variant A27L E26F)

ΔΔG° (DMF5 TCR): >3 kcal/mol
Substance: pT9W: MART126(27L)-35 (ELA) peptide with T9W substitution, presented by HLA-A2 (ELAGIGILWV; MART-1 26-35 peptide; UniProt Q16655 26-35, looked up, variant A27L T34W)

Second part, the substance before the results:

Substance: DMF5 TCR T54αI
ΔΔG° (MART126(27L)-35/HLA-A2): 0.33 kcal/mol

Substance: PE1Q: MART126(27L)-35 (ELA) peptide with E1Q substitution, presented by HLA-A2 (QLAGIGILTV; MART-1 26-35 peptide; UniProt Q16655 26-35, looked up, variant A27L E26Q)
ΔΔG° (DMF5 TCR): 1.0 kcal/mol

Substance: pI5E: MART126(27L)-35 (ELA) peptide with I5E substitution, presented by HLA-A2 (ELAGEGILTV; MART-1 26-35 peptide; UniProt Q16655 26-35, looked up, variant A27L I30E)
ΔΔG° (DMF5 TCR): 3.07 kcal/mol
